How the values were obtained:
[1] = target: human PDGF-B (c-sis) (human) (UniProt P01127); experiment: cell-based or functional assay
[2] = target: wildtype murine PDGF A chain (murine) (UniProt P20033); experiment: cell-based or functional assay

human PDGF-B (c-sis) (human), sequence (P01127 82-190 limits assumed): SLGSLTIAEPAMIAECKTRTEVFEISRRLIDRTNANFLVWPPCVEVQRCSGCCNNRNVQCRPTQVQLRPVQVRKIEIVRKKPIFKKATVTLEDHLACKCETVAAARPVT

What does the source list for “PDGF A dominant negative mutant 1308 (murine PDGF A chain with the third cysteine residue changed to serine) (from UniProt P20033 87-196) (ligand)”?
growth of PDGF-B (c-sis) transformed Balb/c 3T3 sublines in PPP-supplemented medium [1]: 90 % inhibition; growth of PDGF-A transformed Balb/c 3T3 sublines in PPP-supplemented medium (% suppression) [2]: 70

— patent US6475781
